± gives the standard deviation of the averaged measurements.

From the supplement of paper PMC11316812 come the findings set out here.

Data set [1] deals with hTERT-HMEC. In words: percentage of EdU-negative (G0-arrested) nuclei per well, 72 h; higher = more G0 arrest. The settings on record: reference: sequence is the full UniProt precursor, the tested protein was the secreted form or ectodomain.
For data set [2], the system named is MCF7. The data set is described as above. The settings on record: reference: sequence is the full UniProt precursor, the tested protein was the secreted form or ectodomain.
The mark [3] stands for this setting: protein concentration 0.02225 µM.
Setting [4] is: protein concentration 0.2225 µM.
Where [5] appears, read: protein concentration 0.0075 µM.
The mark [6] stands for this setting: protein concentration 0.0231575 µM.
Where [7] appears, read: protein concentration 0.231575 µM.
[8] abbreviates: protein concentration 0.0257143 µM.
[9] abbreviates: protein concentration 0.257143 µM.
[10] abbreviates: protein concentration 0.013725 µM.
Where [11] appears, read: protein concentration 0.13725 µM.
Setting [12] is: protein concentration 0.0225 µM.
Setting [13] is: protein concentration 0.01375 µM.
[14] abbreviates: protein concentration 0.1375 µM.
Where [15] appears, read: protein concentration 0.00575 µM.
Setting [16] is: protein concentration 0.0575 µM.
Where [17] appears, read: protein concentration 0.0175 µM.
The mark [18] stands for this setting: protein concentration 0.0134286 µM.
Where [19] appears, read: protein concentration 0.134286 µM.
Setting [20] is: protein concentration 0.03125 µM.
Setting [21] is: protein concentration 0.3125 µM.
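Note: secreted proteins added to cultured cells, EdU pulse at the end, nuclei found by Hoechst imaging, EdU status from nuclear versus surrounding ring intensity ratio, PBS as neutral control.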

Chain of Q8IWL1 (chain, as listed by the source): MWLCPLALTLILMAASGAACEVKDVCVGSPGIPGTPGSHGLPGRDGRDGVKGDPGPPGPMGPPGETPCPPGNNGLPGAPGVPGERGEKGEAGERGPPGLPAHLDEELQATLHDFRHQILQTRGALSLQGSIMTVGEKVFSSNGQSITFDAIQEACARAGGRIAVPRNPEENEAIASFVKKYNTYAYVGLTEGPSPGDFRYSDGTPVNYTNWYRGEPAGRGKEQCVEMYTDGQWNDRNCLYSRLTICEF
Chain of Q6UXN8 (chain, as listed by the source): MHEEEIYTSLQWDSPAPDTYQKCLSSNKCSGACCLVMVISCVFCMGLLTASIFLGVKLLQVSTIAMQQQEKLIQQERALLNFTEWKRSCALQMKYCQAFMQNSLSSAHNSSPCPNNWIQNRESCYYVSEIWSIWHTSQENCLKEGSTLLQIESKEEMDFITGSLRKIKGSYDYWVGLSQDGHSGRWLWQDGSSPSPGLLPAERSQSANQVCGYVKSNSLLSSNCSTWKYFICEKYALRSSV
Chain of Q6ZMJ2 (chain, as listed by the source): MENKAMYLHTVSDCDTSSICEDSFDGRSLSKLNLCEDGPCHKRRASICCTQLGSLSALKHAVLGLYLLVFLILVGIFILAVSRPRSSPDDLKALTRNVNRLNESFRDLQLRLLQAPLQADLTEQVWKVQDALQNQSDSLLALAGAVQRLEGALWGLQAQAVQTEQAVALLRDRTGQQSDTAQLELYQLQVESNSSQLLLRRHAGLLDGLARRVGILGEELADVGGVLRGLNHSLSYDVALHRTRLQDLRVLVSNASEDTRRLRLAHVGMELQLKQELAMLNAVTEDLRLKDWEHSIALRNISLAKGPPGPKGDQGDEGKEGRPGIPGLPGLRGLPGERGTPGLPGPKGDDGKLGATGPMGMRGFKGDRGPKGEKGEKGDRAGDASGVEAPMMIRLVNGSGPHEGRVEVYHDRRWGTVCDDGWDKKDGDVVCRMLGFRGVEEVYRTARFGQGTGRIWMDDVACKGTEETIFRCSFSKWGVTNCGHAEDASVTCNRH

For the substance “MYLSRFLSIHALWVTVSSVMQPYPLVWGHYDLCKTQIYTEEGKVWDYMACQPESTDMTKYLKVKLDPPDITCGDPPETFCAMGNPYMCNNECDASTPELAHPPELMFDFEGRHPSTFWQSATWKEYPKPLQVNITLSWSKTIELTDNIVITFESGRPDQMILEKSLDYGRTWQPYQYYATDCLDAFHMDPKSVKDLSQHTVLEIICTEEYSTGYTTNSKIIHFEIKDRFAFFAGPRLRNMASLYGQLDTTKKLRDFFTVTDLRIRLLRPAVGEIFVDELHLARYFYAISDIKVRGRCKCNLHATVCVYDNSKLTCECEHNTTGPDCGKCKKNYQGRPWSPGSYLPIPKGTANTCIPSISSIGNCECFGHSNRCSYIDLLNTVICVSCKHNTRGQHCELCRLGYFRNASAQLDDENVCIECYCNPLGSIHDRCNGSGFCECKTGTTGPKCDECLPGNSWHYGCQPNVCDNELLHCQNGGTCHNNVRCLCPAAYTGILCEKLRCEEAGSCGSDSGQGAPPHGSPALLLLTTLLGTASPLVF [Q9Y2I2]”, the “percentage of EdU-negative” value in data set [1] (setting [3]) was 5.38 ± 0.34%; in data set [1] (setting [4]), 5.84 ± 1.4%; in data set [2] (setting [3]), 26.06 ± 0.23%; in data set [2] (setting [4]), 28.6 ± 3.7%.

On to “MYLVAGDRGLAGCGHLLVSLLGLLLLLARSGTRALVCLPCDESKCEEPRNCPGSIVQGVCGCCYTCASQRNESCGGTFGIYGTCDRGLRCVIRPPLNGDSLTEYEAGVCEDENWTDDQLLGFKPCNENLIAGCNIINGKCECNTIRTCSNPFEFPSQDMCLSALKRIEEEKPDCSKARCEVQFSPRCPEDSVLIEGYAPPGECCPLPSRCVCNPAGCLRKVCQPGNLNILVSKASGKPGECCDLYECKPVFGVDCRTVECPPVQQTACPPDSYETQVRLTADGCCTLPTRCECLSGLCGFPVCEVGSTPRIVSRGDGTPGKCCDVFECVNDTKPACVFNNVEYYDGDMFRMDNCRFCRCQGGVAICFTAQCGEINCERYYVPEGECCPVCEDPVYPFNNPAGCYANGLILAHGDRWREDDCTFCQCVNGERHCVATVCGQTCTNPVKVPGECCPVCEEPTIITVDPPACGELSNCTLTGKDCINGFKRDHNGCRTCQCINTEELCSERKQGCTLNCPFGFLTDAQNCEICECRPRPKKCRPIICDKYCPLGLLKNKHGCDICRCKKCPELSCSKICPLGFQQDSHGCLICKCREASASAGPPILSGTCLTVDGHHHKNEESWHDGCRECYCLNGREMCALITCPVPACGNPTIHPGQCCPSCADDFVVQKPELSTPSICHAPGGEYFVEGETWNIDSCTQCTCHSGRVLCETEVCPPLLCQNPSRTQDSCCPQCTDQPFRPSLSRNNSVPNYCKNDEGDIFLAAESWKPDVCTSCICIDSVISCFSESCPSVSCERPVLRKGQCCPYCIEDTIPKKVVCHFSGKAYADEERWDLDSCTHCYCLQGQTLCSTVSCPPLPCVEPINVEGSCCPMCPEMYVPEPTNIPIEKTNHRGEVDLEVPLWPTPSENDIVHLPRDMGHLQVDYRDNRLHPSEDSSLDSIASVVVPIIICLSIIIAFLFINQKKQWIPLLCWYRTPTKPSSLNNQLVSVDCKKGTRVQVDSSQRMLRIAEPDARFSGFYSMQKQNHLQADNFYQTV [Q9NZV1]”, for which the “percentage of EdU-negative” value came to 4.66 ± 0.59% in data set [1] (setting [5]), 5.81 ± 1.6% in data set [1] (protein concentration 0.075 µM), 24.3 ± 2.8% in data set [2] (setting [5]) and 25.9 ± 0.87% in data set [2] (protein concentration 0.075 µM).

Consider “MYREWVVVNVFMMLYVQLVQGSSNEHGPVKRSSQSTLERSEQQIRAASSLEELLRITHSEDWKLWRCRLRLKSFTSMDSRSASHRSTRFAATFYDIETLKVIDEEWQRTQCSPRETCVEVASELGKSTNTFFKPPCVNVFRCGGCCNEESLICMNTSTSYISKQLFEISVPLTSVPELVPVKVANHTGCKCLPTAPRHPYSIIRRSIQIPEEDRCSHSKKLCPIDMLWDSNKCKCVLQEENPLAGTEDHSHLQEPALCGPHMMFDEDRCECVCKTPCPKDLIQHPKNCSCFECKESLETCCQKHKLFHPDTCSCEDRCPFHTRPCASGKTACAKHCRFPKEKRAAQGPHSRKNP”, for which the “percentage of EdU-negative” value in data set [1] (setting [6]) was 4.71 ± 0.18%; in data set [1] (setting [7]), 7.16 ± 1.6%; in data set [2] (setting [6]), 27.2 ± 0.62%; in data set [2] (setting [7]) it was 28.82 ± 0.28%.

Regarding “MYRHGISSQRSWPLWTTIFIFLGVAAILGVTIGLLVHFLAVEKTYYYQGDFHISGVTYNDNCENAASQASTNLSKDIETKMLNAFQNSSIYKEYVKSEVIKLLPNANGSNVQLQLKFKFPPAEGVSMRTKIKAKLHQMLKNNMASWNAVPASIKLMEISKAASEMLTNNCCGRQVANSIITGNKIVNGKSSLEGAWPWQASMQWKGRHYCGASLISSRWLLSAAHCFAKKNNSKDWTVNFGIVVNKPYMTRKVQNIIFHENYSSPGLHDDIALVQLAEEVSFTEYIRKICLPEAKMKLSENDNVVVTGWGTLYMNGSFPVILQEDFLKIIDNKICNASYAYSGFVTDTMLCAGFMSGEADACQNDSGGPLAYPDSRNIWHLVGIVSWGDGCGKKNKPGVYTRVTSYRNWITSKTGL [Q86T26]”, the “percentage of EdU-negative” value worked out at 5.22 ± 1.8% in data set [1] (setting [8]), 5.69 ± 1% in data set [1] (setting [9]), 23.6 ± 1.4% in data set [2] (setting [8]) and 25.2 ± 1.9% in data set [2] (setting [9]).

With “MYSAPSACTCLCLHFLLLCFQVQVLVAEENVDFRIHVENQTRARDDVSRKQLRLYQLYSRTSGKHIQVLGRRISARGEDGDKYAQLLVETDTFGSQVRIKGKETEFYLCMNRKGKLVGKPDGTSKECVFIEKVLENNYTALMSAKYSGWYVGFTKKGRPRKGPKTRENQQDVHFMKRYPKGQPELQKPFKYTTVTKRSRRIRPTHPA”, the “percentage of EdU-negative” value in data set [1] (setting [10]) came out at 4.7 ± 1.1%; in data set [1] (setting [11]), 5.41 ± 0.5%; in data set [2] (setting [10]), 24.26 ± 0.046%; in data set [2] (setting [11]) it was 22.8 ± 0.92%.

For “MYTAIPQSGSPFPGSVQDPGLHVWRVEKLKPVPVAQENQGVFFSGDSYLVLHNGPEEVSHLHLWIGQQSSRDEQGACAVLAVHLNTLLGERPVQHREVQGNESDLFMSYFPRGLKYQEGGVESAFHKTSTGAPAAIKKLYQVKGKKNIRATERALNWDSFNTGDCFILDLGQNIFAWCGGKSNILERNKARDLALAIRDSERQGKAQVEIVTDGEEPAEMIQVLGPKPALKEGNPEEDLTADKANAQAAALYKVSDATGQMNLTKVADSSPFALELLISDDCFVLDNGLCGKIYIWKGRKANEKERQAALQVAEGFISRMQYAPNTQVEILPQGHESPIFKQFFKDWK”, the “percentage of EdU-negative” value is 5.3073 ± 0.0047% in data set [1] (setting [12]), 6.38 ± 0.68% in data set [1] (protein concentration 0.225 µM), 24.6 ± 2.7% in data set [2] (setting [12]) and 26.02 ± 0.14% in data set [2] (protein concentration 0.225 µM).

O60486: the “percentage of EdU-negative” value amounted to 4.77 ± 0.19% in data set [1] (setting [13]), 10.8 ± 1% in data set [1] (setting [14]), 23.37 ± 0.13% in data set [2] (setting [13]) and 26.9 ± 3% in data set [2] (setting [14]).

As to P0C0L4, the “percentage of EdU-negative” value in data set [1] (setting [15]) stood at 4.91 ± 0.16%; in data set [1] (setting [16]), 5.66 ± 0.38%; in data set [2] (setting [15]) it was 24.22 ± 0.12%; in data set [2] (setting [16]), 26.1 ± 0.47%.

As to P08572, the “percentage of EdU-negative” value in data set [1] (protein concentration 0.008 µM) was determined as 4.54 ± 0.088%; in data set [1] (protein concentration 0.08 µM) it was 5.63 ± 0.46%; in data set [2] (protein concentration 0.008 µM), 24.1 ± 2.1%; in data set [2] (protein concentration 0.08 µM), 25.4 ± 0.67%.

Turning to P16144, the “percentage of EdU-negative” value in data set [1] (setting [17]) is 5.31 ± 0.28%; in data set [1] (protein concentration 0.175 µM), 5.29 ± 0.16%; in data set [2] (setting [17]) it was 24.1 ± 3.2%; in data set [2] (protein concentration 0.175 µM), 28.6 ± 0.6%.

Take P20908: the “percentage of EdU-negative” value in data set [1] (setting [18]) amounted to 5.6 ± 0.17%; in data set [1] (setting [19]) it was 25.8 ± 0.52%; in data set [2] (setting [18]), 23.71 ± 0.12%; in data set [2] (setting [19]), 28.6 ± 1.4%.

For P32881, the “percentage of EdU-negative” value in data set [1] (setting [20]) was 25.9 ± 1.2%; in data set [1] (setting [21]) it was 30.4 ± 4.1%; in data set [2] (setting [20]) it was 46 ± 0.63%; in data set [2] (setting [21]), 49.3 ± 0.71%.

Consider Q6UXN8, for which the “percentage of EdU-negative” value in data set [1] (setting [12]) turned out to be 4.27 ± 1%; in data set [1] (protein concentration 0.225 µM) it was 4.93 ± 0.51%; in data set [2] (setting [12]), 24.9 ± 2.2%; in data set [2] (protein concentration 0.225 µM), 25.2 ± 1.4%.

Q6ZMJ2: the “percentage of EdU-negative” value came out at 4.96 ± 0.49% in data set [1] (setting [8]), 8.139 ± 0.079% in data set [1] (setting [9]), 24.7 ± 1.6% in data set [2] (setting [8]) and 24.2 ± 0.89% in data set [2] (setting [9]).

Take Q8IWL1: the “percentage of EdU-negative” value in data set [1] (setting [12]) turned out to be 5.29 ± 1.1%; in data set [1] (protein concentration 0.225 µM), 6.43 ± 1.3%; in data set [2] (setting [12]), 28.1 ± 0.35%; in data set [2] (protein concentration 0.225 µM), 26.4 ± 0.85%.
